# PMC7010297, “How the initiating ribosome copes with ppGpp to translate mRNAs” (PLoS Biology, 2020)
# Values joined by “and” are separate entries in the source; they are usually repeats but may differ in a detail not shown here. Equal entries are not always repeated. Where two headings read alike, the source gives them in different places.
# What was measured:
# IF2-bound 30S IC = molecular target: T1, IF2-bound 30S IC (Escherichia coli, UniProt P0A705); assay: 30S IC formation by MST, guanosine nucleotide titration; format: binding; settings: for MST Average / MST Replicates: Fig 6E; for Kd: Fig 3F, GTP titration;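 on MST Average: lower thermophoresis signal means Bpy-tRNAi dissociation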
# T1 construct: 6xHis (N); made in house
# Method in brief: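 Binding of fluorescently labelled initiator tRNA (Bpy-tRNAi) to E. coli 30S subunits followed by microscale thermophoresis, titrating guanosine nucleotides at constant 1 μM IF2. Dissociation constants from quadratic nonlinear fits of Ff/Fi versus ligand concentration; three measurements, mean ± SD.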
# [1] = tested on: mRNA translation (protein synthesis); assay: In vitro translation in pure cell-free system (PURExpress, Lumio labelling); format: biochemical
# Method: Fig 5 Permissive ppGpp-mediated inhibition of mRNA translation. (A) Scheme of the translating 70S complex. (B) In vitro translation of mTufA and mInfA derivatives harboring a coding sequence for the Lumio labelling system (Experimental conditions and analysis). […] Synthetized proteins were fluorescently labelled and resolved by 20% SDS-PAGE. The resulting images were analyzed by pixel densitometry using ImageJ [37] to estimate translation efficiencies (TEs). […] (D) Comparison of inhibitory constants for both mRNAs as measured during 30S IC formation (white) or overall translation efficiency (gray). Mean and standard deviations from three measurements are plotted (S1 Data). GTP, guanosine triphosphate; mInfA, InfA mRNA; mTufA, TufA mRNA; TE, translation efficiency.
# In order to visualize overall protein synthesis, we used a coupled transcription-translation cell-free system. Reactions were carried out in 10 μL of the purified components from the PURExpress In Vitro Protein Synthesis Kit (E6800S/L, NEB, Ipswich, Massachusetts) with the corresponding templates. These reactions were incubated at 37°C for 2 hours. […] After incubation, sample processing and fluorescent labelling were carried out as described by the Lumio Green Detection Kit (LC6090, ThermoScientific, Waltham, Massachusetts) for in vitro reactions. Finally, 20 μL of labelled samples were loaded into 20% SDS-PAGE gels and visualized under a Blue-light LED transilluminator with orange filter (Cleaver Scientific LTD, Warwickshire, UK). Gel quantification was performed by pixel densitometry analysis using ImageJ software.
molecule,measurement,setting,value
"mTufA: TufA mRNA with full-length 5′ UTR, in vitro transcribed, codes for EF-Tu (nucleic acid) GGUUCUAUCGCCUUUAAAGAAGGCUUUAAGAAAGCGAAACCAGUUCUGCUUGAGCCGAUCAUGAAGGUUGAAGUAGAAACUCCGGAAGAGAACACCGGUGACGUUAUCGGUGACUUGAGCCGUCGUCGUGGUAUGCUCAAAGGUCAGGAAUCUGAAGUUACUGGCGUUAAGAUCCACGCUGAAGUACCGCUGUCUGAAAUGUUCGGAUACGCAACUCAGCUGCGUUCUCUGACCAAAGGUCGUGCAUCAUACACUAUGGAAUUCCUGAAGUAUGAUGAAGCGCCGAGUAACGUUGCUCAGGCCGUAAUUGAAGCCCGUGGUAAAUAAGCCUAAGGGUUAAUACCAAAGUCCCGUGCUCUCUCCUGAAGGGGAGAGCACUAUAGUAAGGAAUAUAGCCGUGUCUAAAGAAAAAUUUGAACG",MST Average,IF2-bound 30S IC; GTP 0.49 μM,1014.52 a.u.
same,MST Replicates,IF2-bound 30S IC; GTP 0.49 μM,1011.10 a.u. and 1014.70 a.u. and 1017.78 a.u.
same,MST Average,IF2-bound 30S IC; GTP 1.95 μM,1035.39 a.u.
same,MST Replicates,IF2-bound 30S IC; GTP 1.95 μM,1032.39 a.u. and 1034.94 a.u. and 1038.85 a.u.
same,MST Average,IF2-bound 30S IC; GTP 3.91 μM,1049.68 a.u.
same,MST Replicates,IF2-bound 30S IC; GTP 3.91 μM,1044.99 a.u. and 1049.25 a.u. and 1054.80 a.u.
same,MST Average,IF2-bound 30S IC; GTP 7.81 μM,1070.36 a.u.
same,MST Replicates,IF2-bound 30S IC; GTP 7.81 μM,1070.17 a.u. and 1070.71 a.u. and 1070.18 a.u.
same,Kd,"IF2-bound 30S IC; read-out: Kd (μM) of GTP for the 30S IC programmed with the labelled mRNA, Average",0.28 µM
same,Kd,"IF2-bound 30S IC; read-out: Kd (μM) of GTP for the 30S IC programmed with the labelled mRNA, single replicate",0.3 µM and 0.27 µM
same,Translation Avg,"[1]; 2 mM ppGpp, Fig 6G",0.27 a.u.
same,Translation Avg,"[1]; No ppGpp, Fig 6G",0.83 a.u.
same,Translation Replicate,"[1]; No ppGpp, Fig 6G",0.83 a.u.
same,translation higher than mInfA,[1]; in the absence of ppGpp,3 fold
